Substrate in the data set: Nc1ncnc2c1ncn2[C@@H]1O[C@H](COP(=O)(O)OP(=O)(O)OP(=O)(O)O)[C@@H](O)[C@H]1O
Description: malachite green phosphate release assay, Michaelis-Menten fit. As to conditions: no DNA, 5 mM MgCl2, 120 mM KCl, 10 mM HEPES-KOH pH 7.5, 37 °C, 250 nM MutS dimer. It is filed as biochemical, Escherichia coli. An excerpt:
malachite green phosphate release assay, Michaelis-Menten fit on ecMutS

Broadly, the Km is the concentration of substrate that gives half-maximal velocity. In general, kcat refers to the maximal rate divided by the concentration of active sites.

B1: ecMutS (Escherichia coli K-12) (protein)
chain: MSAIENFDAHTPMMQQYLRLKAQHPEILLFYRMGDFYELFYDDAKRASQLLDISLTKRGASAGEPIPMAGIPYHAVENYLAKLVNQGESVAICEQIGDPATSKGPVERKVVRIVTPGTISDEALLQERQDNLLAAIWQDSKGFGYATLDISSGRFRLSEPADRETMAAELQRTNPAELLYAEDFAEMSLIEGRRGLRRRPLWEFEIDTARQQLNLQFGTRDLVGFGVENAPRGLCAAGCLLQYAKDTQRTTLPHIRSITMEREQDSIIMDAATRRNLEITQNLAGGAENTLASVLDCTVTPMGSRMLKRWLHMPVRDTRVLLERQQTIGALQDFTAGLQPVLRQVGDLERILARLALRTARPRDLARMRHAFQQLPELRAQLETVDSAPVQALREKMGEFAELRDLLERAIIDTPPVLVRDGGVIASGYNEELDEWRALADGATDYLERLEVRERERTGLDTLKVGFNAVHGYYIQISRGQSHLAPINYMRRQTLKNAERYIIPELKEYEDKVLTSKGKALALEKQLYEELFDLLLPHLEALQQSASALAELDVLVNLAERAYTLNYTCPTFIDKPGIRITEGRHPVVEQVLNEPFIANPLNLSPQRRMLIITGPNMGGKSTYMRQTALIALMAYIGSYVPAQKVEIGPIDRIFTRVGAADDLASGRSTFMVEMTETANILHNATEYSLVLMDEIGRGTSTYDGLSLAWACAENLANKIKALTLFATHYFELTQLPEKMEGVANVHLDALEHGDTIAFMHSVQDGAASKSYGLAVAALAGVPKEVIKRARQKLRELESISPNAAATQVDGTQMSLLSVPEETSPAVEALENLDPDSLTPRQALEWIYRLKSLV
notes: recombinant, N-terminal His6 tag, expressed in E. coli BL21(DE3), Ni-NTA and size exclusion; homodimer
On to B1, for which the Km came to 35 ± 15 µM and the kcat came to 0.117 ± 0.0167 s⁻¹.

The values above are taken from article PMC7699706, “Responses of DNA Mismatch Repair Proteins to a Stable G-Quadruplex Embedded into a DNA Duplex Structure” (International Journal of Molecular Sciences, 2020).
